The values below come from patent US20230131339A1, “EPI-X4 BASED PEPTIDES AND DERIVATIVES THEREOF” (Universitaet Ulm, priority 2020, published 2023).

Where no end group is shown, it is not given here. Side-chain parts run from the residue outwards. [ ]: non-standard residue; d: D form. The star is where a group is joined. Stearoyl = CCCCCCCCCCCCCCCCCC(=O)*; Palmitoyl = CCCCCCCCCCCCCCCC(=O)*; Myristoyl = CCCCCCCCCCCCCC(=O)*; Glu = glutamate linker

First the molecules themselves.
B1: JM#179 (peptide)
peptide: M[dL]RWSRK(Palmitoyl)LP-NH2
modifications: N-terminus assumed
SMILES: CCCCCCCCCCCCCCCC(=O)NCCCC[C@H](NC(=O)[C@H](CCCNC(=N)N)NC(=O)[C@H](CO)NC(=O)[C@H](Cc1c[nH]c2ccccc12)NC(=O)[C@H](CCCNC(=N)N)NC(=O)[C@@H](CC(C)C)NC(=O)[C@@H](N)CCSC)C(=O)N[C@@H](CC(C)C)C(=O)N1CCC[C@H]1C(N)=O
B2: JM#181 (peptide)
peptide: M[dL]RWSRK(Palmitoyl)-NH2
modifications: N-terminus assumed
SMILES: CCCCCCCCCCCCCCCC(=O)NCCCC[C@H](NC(=O)[C@H](CCCNC(=N)N)NC(=O)[C@H](CO)NC(=O)[C@H](Cc1c[nH]c2ccccc12)NC(=O)[C@H](CCCNC(=N)N)NC(=O)[C@@H](CC(C)C)NC(=O)[C@@H](N)CCSC)C(N)=O
B3: JM#256 (peptide)
peptide: [dL]LRWSRK(Stearoyl)-NH2
modifications: N-terminus assumed
SMILES: CCCCCCCCCCCCCCCCCC(=O)NCCCC[C@H](NC(=O)[C@H](CCCNC(=N)N)NC(=O)[C@H](CO)NC(=O)[C@H](Cc1c[nH]c2ccccc12)NC(=O)[C@H](CCCNC(=N)N)NC(=O)[C@H](CC(C)C)NC(=O)[C@H](N)CC(C)C)C(N)=O

The target in this assay is CXC chemokine receptor type 4 (CXCR4) (human, UniProt P61073 1-352). Briefly: cell-based or functional assay.
CXC chemokine receptor type 4 (CXCR4), sequence (P61073 whole entry): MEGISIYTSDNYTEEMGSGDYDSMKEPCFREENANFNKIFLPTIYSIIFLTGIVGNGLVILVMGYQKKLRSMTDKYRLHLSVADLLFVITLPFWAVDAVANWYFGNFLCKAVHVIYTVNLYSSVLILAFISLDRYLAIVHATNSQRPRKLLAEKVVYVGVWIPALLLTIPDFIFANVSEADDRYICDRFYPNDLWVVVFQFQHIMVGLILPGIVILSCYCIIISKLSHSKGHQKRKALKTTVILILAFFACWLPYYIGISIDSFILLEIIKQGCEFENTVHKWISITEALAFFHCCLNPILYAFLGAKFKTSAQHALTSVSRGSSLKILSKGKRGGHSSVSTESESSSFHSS
As to [dI]LRWSRK(Palmitoyl)LP-NH2 [JM#175], the “IC50, HIV inhibition assay” value is > 0.15 µM. Still for that read-out and setting: under ILRWSRKLPSVS [JM#122] stands 0.05 to 0.15 µM; under ILRWSRK(Lau)LPCVS [JM#214], 0.05 to 0.15 µM; under Ac-[dS]LRWSRKMPCVS [JM#26], > 0.15 µM.

As for [dM]MRWSRKMPCVS [JM#35], the “IC50, HIV inhibition assay” value is > 0.15 µM.

Regarding MXRWSRKMPCVS (d-L at position 2) [JM#44], the “IC50, HIV inhibition assay” value was > 0.15 µM. Same read-out and setting: for Ac-[dS]MRWSRKMPCVS [JM#33] the value was > 0.15 µM; for IVRWSKKVP-NH2 [JM#106], > 0.15 µM. For XLRWSRKMPCVS (d-M at position 1) [JM#28], the “IC50, HIV inhibition assay” value is > 0.15 µM and the “IC50, HIV-1 inhibition assay” value is 0.246 µM. Regarding GLRWSRKMPCVS [JM#31], the “IC50, HIV inhibition assay” value was > 0.15 µM. On the same count and under the same terms, under B1 stands > 0.15 µM. On the same count and under the same terms, for IVRWSKKVPSVS [JM#151] the value was > 0.15 µM. The same measure, in the same setting: under IVRWSK(Palmitoyl)K-NH2 [JM#164] stands > 0.15 µM; under IFRWSKKVPCVS [JM#2], > 0.15 µM. On to IVRWSRKVPCVS [JM#3], for which the “IC50, HIV inhibition assay” value was > 0.15 µM. Still for that read-out and setting: for IVRWSKKIPCVS [JM#6] the value was > 0.15 µM; for IVRWSKK-NH2 [JM#110], > 0.15 µM; for IFRWSRKVPCVS [JM#10], 0.05 to 0.15 µM.

With MLRWSRKMPCVS [JM#27], the “IC50, HIV inhibition assay” value lay within 0.05 to 0.15 µM. Same read-out and setting: under IVRWSHKVPCVS [JM#4] stands > 0.15 µM; under ILRWSRK(Stearoyl)LPCVS [JM#182], > 0.15 µM. Same read-out and setting: for I[dL]RWSRKMPCVS [JM#42] the value was > 0.15 µM. On the same count and under the same terms, under [dF]MRWSRKMPCVS [JM#37] stands > 0.15 µM; under IVRWSK(Palmitoyl)KVPCVS [JM#168], > 0.15 µM.

As to ILRWSRKVPSVS [JM#23], the “IC50, HIV inhibition assay” value was > 0.15 µM. Same read-out and setting: under [dI]LRWSRK-NH2 [JM#173] stands > 0.15 µM; under B2, > 0.15 µM; under Ac-SMRWSRKMPCVS [JM#32], > 0.15 µM. For ILRWSRK(Myristoyl)-NH2 [JM#262], the “IC50, HIV inhibition assay” value fell in the range of 0.05 to 0.15 µM. The same measure, in the same setting: for MMRWSRKMPCVS [JM#34] the value was 0.05 to 0.15 µM; for IVRWSKKMPCVS [JM#12], > 0.15 µM. Same read-out and setting: under [dL]LRWSRKMPCVS (not fully specified (residue 7)) [JM#140] stands 0.05 to 0.15 µM; under ILRWSKKVPCVS [JM#1], > 0.15 µM; under ILRWSRK([Glu-Palmitoyl])MPCLS [JM#148], > 0.15 µM. The same measure, in the same setting: for IIRWSRKMPCVS [JM#16] the value was > 0.15 µM. As to ILRWSRKLPCK([Glu-Palmitoyl])S [JM#145], the “IC50, HIV inhibition assay” value was > 0.15 µM. Same read-out and setting: under [dL]MRWSRK(Palmitoyl)MPCVS [JM#176] stands > 0.15 µM; under ILRWSRKMPSVS [JM#24], > 0.15 µM; under B3, 0.05 to 0.15 µM. On the same count and under the same terms, under IYRWSRKMPCLS [JM#146] stands > 0.15 µM; under [dF]LRWSRKMPCVS [JM#30], > 0.15 µM.

Take [dL]MRWSRKMPCVS (ends and bridges not checked) [JM#36]: the “IC50, HIV inhibition assay” value was > 0.15 µM and the “IC50, HIV-1 inhibition assay” value was 0.206 µM.

Regarding IFRWSHKVPCVS [JM#11], the “IC50, HIV inhibition assay” value was > 0.15 µM. As for ILRWSRKVPC[dV]S [JM#15], the “IC50, HIV inhibition assay” value is > 0.15 µM.

For [dL]LRWSRKMPCVS [JM#29], the “IC50, HIV inhibition assay” value is > 0.15 µM. On the same count and under the same terms, for ILRWSRK(Palmitoyl)MPCLS [JM#149] the value was 0.05 to 0.15 µM.

Regarding IVRWSKKLPCVS [JM#5], the “IC50, HIV inhibition assay” value is > 0.15 µM. Still for that read-out and setting: for IVRWSKKFPCVS [JM#7] the value was > 0.15 µM; for IVRWSKKVPC[dV]S [JM#14], > 0.15 µM. As for ILRWSRKLPCVS (not fully specified (residue 7)) [JM#143], the “IC50, HIV inhibition assay” value was > 0.15 µM; the “IC50, X4-HIV-1 inhibition assay” value turned out to be 0.005 µM; the “fold increase of anti-HIV-1 potency compared to WSC02” value is > 60 fold. On to IVRWSKK(Palmitoyl)-NH2 [JM#165], for which the “IC50, HIV inhibition assay” value is > 0.15 µM. On the same count and under the same terms, for ILRWSHKVPCVS [JM#9] the value was > 0.15 µM. Still for that read-out and setting: under IXRWSRKLPCVS (d-L at position 2) [JM#41] stands > 0.15 µM; under XMRWSRKMPCVS (d-G at position 1 (so in the source)) [JM#38], > 0.15 µM. Same read-out and setting: for Ac-SLRWSRKMPCVS [JM#25] the value was > 0.15 µM.

Turning to ILRWSRKVPCVS [JM#8], the “IC50, HIV inhibition assay” value lay within 0.05 to 0.15 µM.
